B1: Enzyme I (EI), full length (residues 1-575), from E. coli (enzyme)
chain: not shown

Series [1] deals with the molecule itself. The experiment in a line: AUC.
In series [2] the target is B1. The experiment in a line: ITC.
The target in series [3] is B1. The experiment in a line: ITC. The source holds these as a separate data set.

The text below walks through data of paper PMC2955445 (Journal of the American Chemical Society, 2010).

Read-outs that look alike come from different tables or passages of the source.

Take B1: in series [1], the “stoichiometry N” value turned out to be 2.

B2: histidine phosphocarrier protein HPr (natural protein)
chain: not shown
For the molecule B2, the dissociation constant Kd in series [2] turned out to be 21 ± 1.1 µM; in series [3], 6.8 ± 1.8 µM.
